Tests used:
rabx5_human RABGEF1 [1] = target: rabx5_human RABGEF1 (UniProt Q9UJ41)
rabx5_human RABGEF1 [2] = target: rabx5_human RABGEF1 (UniProt Q9UJ41); remark: listed apart in the source

Polyubiquitin-B (Homo sapiens) (from UniProt P0CG47) I44A
effect of a mutation on the interaction (rabx5_human RABGEF1 [1]): decreasing interaction

Polyubiquitin-B (Homo sapiens) (from UniProt P0CG47) D58A
effect of a mutation on the interaction (rabx5_human RABGEF1 [2]): decreasing interaction

Source: IntAct's records for PubMed 16499958
